Data from the supplement of paper PMC10126150.
± gives the standard deviation of the averaged measurements.

Test system: ATP
Assay: switch fluorescence ratio, 500 uM ATP over buffer (Cy3 cluster intensity, sum of 5 cycles each) (fold (ratio)); higher = stronger signal-on switching upon ATP binding; sequences stand for … in TCGTCGGCAGCGTCAGATGTGTATAAGAGACAGTTTTTTTTTTTTTTTTTTTTTTTTT…TC
Conditions: aptamer strand: ATP DNA aptamer (quencher-CACCTGGGGGAGTATTGCGGAGGAAGG + anchor), 100 nM annealed; ATP concentration: 500 uM
How it was run: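 Imaging in selection buffer was followed by imaging after 15 min with 500 uM ATP at 22 °C, for Cy3-labelled switching-strand clusters annealed to 100 nM quencher-labelled ATP aptamer on a modified Illumina MiSeq flow-cell. Five of these buffer/ATP cycles ran, separated by NaOH stripping and re-annealing. The fluorescence ratio per cluster is summed target-cycle over summed buffer-cycle Cy3 intensity, averaged per switch-domain sequence; clusters outside 100-1000 RFU were removed.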
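Further: ATP exposure 15 min at 22 °C before imaging.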

Row | Sequence | switch fluorescence ratio
1 | TTACGGTATA | 1.17 ± 0.038
2 | AGTAAATATA | 0.993 ± 0.022
3 | CGGGCAATCA | 1.58 ± 0.11
4 | TAGGCTGAGG | 1.002 ± 0.0063
5 | CATTGCTTGG | 1.039 ± 0.0012
6 | AGTTTTGCCT | 0.981 ± 0.032
7 | CACTTCTGAA | 0.987 ± 0.017
8 | TTCTTTTTAT | 0.982 ± 0.03
9 | GCGGGGTGTG | 1.016 ± 0.0033
10 | AGAGGGTGTG | 0.992 ± 0.034
11 | GGAATAGATT | 0.99048 ± 0.00037
12 | CTCACGACGT | 1.07 ± 0.019
13 | TTTAAGGCGG | 0.989 ± 0.044
14 | CGTCATGTCT | 1 ± 0.065
15 | TCGGGGTGAC | 1.01 ± 0.018
16 | CGTTGATGGT | 0.992 ± 0.02
17 | AAAGAAGCTT | 1.02 ± 0.041
18 | GTTTTAGTAG | 1.02 ± 0.015
19 | GACTGGTCGA | 0.996 ± 0.053
20 | AAAAAGGGTG | 1 ± 0.045
21 | GGTTTGAAGC | 0.9642 ± 0.008
22 | TAGTTGGTCG | 1.02 ± 0.049
23 | AAATGGTTGT | 1.01 ± 0.02

Row | Sequence | switch fluorescence ratio
24 | ATGTTGAGCT | 1.019 ± 0.0023
25 | TTCGGGTGCT | 1.08 ± 0.052
26 | GGTGCTGTCC | 1.033 ± 0.0011
27 | TATACGGTTT | 1.03 ± 0.083
28 | CAGGGCGATA | 1.1 ± 0.033
29 | TGGTCAAATC | 1 ± 0.051
30 | TAAGGCGGTA | 0.963 ± 0.035
31 | GGTTTGATAT | 0.972 ± 0.013
32 | GAGTCGAGGG | 0.961 ± 0.017
33 | TACATTTCCA | 1.04 ± 0.04
34 | ACGTGGTGTG | 1.015 ± 0.0075
35 | GTATGCGTTG | 0.989 ± 0.056
36 | CAGGGTTAAT | 1.012 ± 0.0094
37 | TAAAAGAGAT | 1.04 ± 0.026
38 | ACTCTTTCGG | 1 ± 0.063
39 | CTAATTTAGT | 1.01 ± 0.014
40 | CAATTTTCTT | 1.02 ± 0.025
41 | TTTGCTACGG | 1.05 ± 0.013
42 | GCAGAATGGG | 1.08 ± 0.12
43 | TTTTCATTCC | 1.13 ± 0.15
44 | CGGTTGGAGC | 0.988 ± 0.042
45 | GATGCCGGCA | 0.98 ± 0.065
46 | AGCATAGAGG | 1.03 ± 0.03

Row | Sequence | switch fluorescence ratio
47 | TTTTCGATGG | 1.01 ± 0.016
48 | GGCGGATATT | 0.9975 ± 0.0069
49 | TGGGGGGTCT | 1.02 ± 0.057
50 | TGCTTGTTAG | 0.989 ± 0.07
51 | CAGATTTTTT | 0.982 ± 0.028
52 | TTTAAGCAAG | 1.062 ± 0.0077
53 | TTAGAAAAGG | 1 ± 0.032
54 | GGGAATGTTA | 0.9902 ± 0.007
55 | TTAAATTAAT | 0.976 ± 0.047
56 | ACCGCTCGAA | 1.15 ± 0.056
57 | CTAGCTGACC | 1.11 ± 0.046
58 | ATAGATTGTT | 1.39 ± 0.59
59 | TGAGTGCTGT | 0.968 ± 0.02
60 | AATGTCAGAG | 0.986 ± 0.02
61 | TGTTTTCGGT | 0.9899 ± 0.0097
62 | TAAGTTAGCC | 1.049 ± 0.005
63 | TGGGGTTGGG | 1 ± 0.044
64 | CTTTTAAGGC | 1.1 ± 0.15
65 | CGGGATGGCC | 1 ± 0.018
66 | TAGTAATGTT | 0.982 ± 0.025
67 | GTGTGAGATT | 1.02 ± 0.024
68 | AAGCTTTTCA | 1.03 ± 0.041
69 | AACCCGAGCC | 1.196 ± 0.011

Row | Sequence | switch fluorescence ratio
70 | TAATGGAAAT | 0.979 ± 0.022
71 | TTTTTGATAC | 1.063 ± 0.0034
72 | TTGGATGCCT | 1.01 ± 0.047
73 | GGTCGGCGTC | 1.014 ± 0.0089
74 | GGGTGAAAAC | 1.03 ± 0.014
75 | TTTAGTCATT | 0.989 ± 0.04
76 | AGGGAGGTCG | 0.973 ± 0.035
77 | TTTGTTTTC | 1.02 ± 0.018
78 | TTTTCGGGGA | 0.978 ± 0.018
79 | GGATGGTTGC | 1.03 ± 0.021
80 | TGCGTAGTTA | 0.987 ± 0.012
81 | TGAGGGTCGG | 0.972 ± 0.041
82 | TTTAAATCCT | 1.09 ± 0.013
83 | GCGGAACGTG | 0.997 ± 0.04
84 | TGGTGCGCCC | 1.033 ± 0.0058
85 | TGGATTAAGT | 1.02 ± 0.042
86 | AGCCTCGGTT | 1.0014 ± 0.00098
87 | ATTATCGTAG | 0.994 ± 0.035
88 | GAGTCGAGTG | 1.01 ± 0.048
89 | GGATGGTTCG | 0.972 ± 0.023
90 | ACGATGAACG | 1.04 ± 0.021
91 | GTCTGAACGT | 0.995 ± 0.081
92 | TTAGTTTTGG | 1.04 ± 0.046

Row | Sequence | switch fluorescence ratio
93 | GATTTATTTA | 0.993 ± 0.015
94 | GGAGACGGGT | 1.02 ± 0.036
95 | ATCGAGGTCC | 1.01 ± 0.074
96 | TTAGTAATTC | 1.12 ± 0.15
97 | TTATAGGTTG | 0.984 ± 0.02
98 | TACTTGGGTC | 1.06 ± 0.03
99 | ACAAGCTTGT | 0.975 ± 0.063
100 | TCCAGTTAGT | 0.977 ± 0.013
101 | TAAGGCATTG | 0.996 ± 0.016
102 | ATTTTTACTT | 0.974 ± 0.032
103 | TAAGGCGCCG | 0.962 ± 0.031
104 | TTTTCATTGT | 1.02 ± 0.036
105 | TATATTTTCA | 1.01 ± 0.068
106 | TTGCTCGCTC | 1.16 ± 0.084
107 | GGAGGGAGGT | 1.01 ± 0.012
108 | CAGGGAGCTT | 1.01 ± 0.03
109 | CCTTGCTGTG | 1.06 ± 0.039
110 | GATATTGTTA | 1 ± 0.029
111 | GAGTAAGTGG | 0.99 ± 0.039
112 | GGGCAGGCTG | 1 ± 0.023
113 | GCTAGGTGTA | 1.12 ± 0.043
114 | ATTTTTTACA | 1.082 ± 0.0069
115 | TCGTTGGATG | 0.9829 ± 0.0013

Row | Sequence | switch fluorescence ratio
116 | TTCCTTCT | 1.13 ± 0.11
117 | GGTTAACTAG | 1.02 ± 0.011
118 | CGCTGGGTGG | 1.02 ± 0.037
119 | TTGCTTGCGG | 0.991 ± 0.041
120 | GGTTAGGTCG | 1.06 ± 0.081
121 | ATATACAGGG | 1.06 ± 0.024
122 | ATGTAAGATT | 0.9891 ± 0.0047
123 | AATTGTGAGG | 1.01 ± 0.023
124 | TGAGGTAGCG | 0.981 ± 0.034
125 | ACACGATTGG | 0.991 ± 0.014
126 | AGCGCTATTT | 1.04 ± 0.065
127 | CGGCCGGGGT | 1.035 ± 0.0058
128 | TCGGTTTAGG | 1.011 ± 0.0076
129 | TAACTTTCTT | 0.987 ± 0.025
130 | ATGGTTTCGA | 0.982 ± 0.04
131 | GAACGGCTG | 1.07 ± 0.049
132 | GGCAGAAAAT | 1.01 ± 0.032
133 | AATAATAAAC | 1.006 ± 0.0047
134 | TTGCTTTTAA | 0.991 ± 0.013
135 | AAATTAGGGA | 0.978 ± 0.046
136 | TGGGTACACG | 1 ± 0.0019
137 | CGAGGCGGAG | 1.01 ± 0.028
138 | GGGGGGAGGT | 1.02 ± 0.065

Row | Sequence | switch fluorescence ratio
139 | ATGTTTTCTT | 0.998 ± 0.016
140 | GGCTATCTTT | 1 ± 0.029
141 | CTGGTGGATT | 0.996 ± 0.024
142 | GAGTGGTACC | 1.01 ± 0.025
143 | CCAATAAATT | 0.974 ± 0.018
144 | TTTCGGTGTG | 0.977 ± 0.0098
145 | TGGTAGTTTG | 0.9951 ± 0.0039
146 | AGTTATGAGT | 1.01 ± 0.054
147 | TTTTGAGGGC | 1.01 ± 0.059
148 | AGGATACCGC | 1.12 ± 0.048
149 | TATTTGATGG | 0.992 ± 0.021
150 | GAGGCCGATT | 1.02 ± 0.011
151 | AAAGAATTTT | 1 ± 0.05
152 | TTAGAGGGTA | 0.9736 ± 0.0085
153 | AGGGCCAGTC | 0.998 ± 0.074
154 | TAGGGGACGT | 0.992 ± 0.063
155 | GGGTTTTAGG | 0.999 ± 0.032
156 | CGCTCCGGGG | 1.06 ± 0.07
157 | GCAAGCAAGA | 1.18 ± 0.067
